Assays:
[1] = target: F-actin (polymerised purified rabbit skeletal G-actin) (rabbit) (UniProt P68135); assay: co-sedimentation
[2] = target: microtubules polymerised from porcine Tubulin (porcine) (UniProt P02550); assay: co-sedimentation
Chain of UniProt P02550 (P02550 whole entry, looked up): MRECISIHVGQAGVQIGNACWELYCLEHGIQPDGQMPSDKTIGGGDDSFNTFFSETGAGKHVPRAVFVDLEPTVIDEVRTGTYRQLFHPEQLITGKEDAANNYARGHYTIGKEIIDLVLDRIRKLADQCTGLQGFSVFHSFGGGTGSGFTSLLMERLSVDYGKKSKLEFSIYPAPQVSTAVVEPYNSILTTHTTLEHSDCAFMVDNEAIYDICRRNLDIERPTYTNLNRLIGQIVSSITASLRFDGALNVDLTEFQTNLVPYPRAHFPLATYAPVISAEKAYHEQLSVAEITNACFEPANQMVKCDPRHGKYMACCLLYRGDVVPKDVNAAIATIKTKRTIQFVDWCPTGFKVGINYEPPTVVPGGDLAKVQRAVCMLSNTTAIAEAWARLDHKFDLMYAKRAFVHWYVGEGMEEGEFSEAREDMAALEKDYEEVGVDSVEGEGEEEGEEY

| Substance | Pellet/Supernatant with F-actin [1] | also measured |
| --- | --- | --- |
| purified human full-length (FL) wild-type HTT (23 glutamines) (from UniProt P42858 1-3142) (natural protein) | 1.05 | Kd [1]: 357 nM |
| HTT fragment containing the Bridge to C_HEAT domains (B-C_HEAT; 1887 to 3144 a.a.) (domain or fragment) | 1.57 |  |
| endogenous HTT of mouse developing cortex, P42859 1-3119 |  | amount of HTT in the pellet with F-actin ([1]; remark: other sources report otherwise): 1.07 |
| HTT Bridge domain tagged with GST (GST-B: 1887-2098 a.a.) (domain or fragment) | 1.6 |  |
| endogenous HTT of mouse developing cortex (from UniProt P42859 1-3119) (natural protein) |  | amount of HTT in the pellet with microtubules [2]: 1.18 |

Source: article doi:10.1101/2023.08.29.555277
